*1 amine or outer side, *2 acyl side, *3 side chain or, on linkers, in order; H or OH if unused. Primed or numbered codes have the meaning given here. Side-chain parts run from the residue outwards. [ ]: non-standard residue; d: D form. The star is where a group is joined. PEG2DGA = 2-[2-[3-[2-[2-(3-aminopropoxy)ethoxy]ethoxy]propylamino-2-oxo-ethoxy]acetyl; γGlu = O=C(O)[C@H](CCC(=O)[*:2])N[*:1]; 1Nal = N[C@@H](Cc1cccc2ccccc12)C(=O)O; Stearoyl = CCCCCCCCCCCCCCCCCC(=O)*; Palmitoyl = CCCCCCCCCCCCCCCC(=O)*; αMeK = C[C@](N)(CCCCN)C(=O)O; Nle = CCCC[C@H](N)C(=O)O; PEG2′ = PEG2 spacer unit; PEG2″ = not defined here; Aib = CC(C)(N)C(=O)O
T1: RXFP1 receptor (UniProt Q9HBX9 1-757, limits assumed)
T1 sequence (looked up): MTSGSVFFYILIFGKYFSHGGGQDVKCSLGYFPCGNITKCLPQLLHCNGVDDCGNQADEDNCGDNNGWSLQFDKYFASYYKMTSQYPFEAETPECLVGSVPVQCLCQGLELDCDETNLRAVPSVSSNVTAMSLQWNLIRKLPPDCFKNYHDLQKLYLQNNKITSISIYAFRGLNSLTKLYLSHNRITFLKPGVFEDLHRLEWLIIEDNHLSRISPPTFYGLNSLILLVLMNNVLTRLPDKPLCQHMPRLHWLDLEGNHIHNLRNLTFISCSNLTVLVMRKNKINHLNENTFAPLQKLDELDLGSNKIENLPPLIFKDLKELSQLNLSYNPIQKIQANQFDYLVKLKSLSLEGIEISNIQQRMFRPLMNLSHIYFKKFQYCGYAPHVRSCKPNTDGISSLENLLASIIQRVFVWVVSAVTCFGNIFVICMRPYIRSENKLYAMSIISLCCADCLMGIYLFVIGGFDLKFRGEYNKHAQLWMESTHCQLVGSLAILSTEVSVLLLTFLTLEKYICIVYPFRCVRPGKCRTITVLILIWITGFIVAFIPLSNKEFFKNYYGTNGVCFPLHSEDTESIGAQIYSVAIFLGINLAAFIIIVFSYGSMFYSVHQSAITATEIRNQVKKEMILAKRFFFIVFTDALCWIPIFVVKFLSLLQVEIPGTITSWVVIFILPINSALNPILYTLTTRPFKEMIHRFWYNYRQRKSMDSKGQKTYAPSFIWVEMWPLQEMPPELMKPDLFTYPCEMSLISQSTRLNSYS


Biological target: T1, RXFP1 receptor
Experiment: cell-based or functional assay

EC50 (nM), OVCAR 5 cells (cAMP) [nM] | EMax, OVCAR 5 cells (cAMP) [%] | Binder
0.11 | 74 | Ac-LEGREKVRAQI[Aib][Aib]EG[Nle]STWS[Aib]RKKK([PEG2′-PEG2′-PEG2′-γGlu-γGlu-γGlu-γGlu-Stearoyl])-NH2 [peptide of SEQ ID NO: 88]
0.02 | 89 | Ac-LEGREKVRAK(Ac)I[Aib][Aib]EG[Nle]STWS[αMeK]RKK(Ac)K([PEG2′-PEG2′-PEG2′-γGlu-γGlu-γGlu-γGlu-Stearoyl])-NH2 [peptide of SEQ ID NO: 82]
0.77 | 75 | Ac-LEGREKVR[Aib]K(Ac)I[Aib][Aib]EG[Nle]ST[1Nal]S[Aib]RKK(Ac)K([PEG2′-PEG2′-PEG2′-γGlu-γGlu-γGlu-Stearoyl])-NH2 [peptide of SEQ ID NO: 85]
0.03 | 79 | Ac-LEGREKVRAK(Ac)I[Aib][Aib]EG[Nle]STWS[Aib]RKKK([PEG2′-PEG2′-PEG2′-γGlu-γGlu-γGlu-γGlu-Stearoyl])-NH2 [peptide of SEQ ID NO: 89]
0.73 | 68 | Ac-LEGREKVR[Aib]K(Ac)I[Aib][Aib]EG[Nle]ST[1Nal]S[Aib]RKK([PEG2′-PEG2′-PEG2′-γGlu-γGlu-γGlu-Stearoyl])-NH2 [peptide of SEQ ID NO: 80]
0.4 | 75 | Ac-LEGREKVRAK(Ac)I[Aib][Aib]EG[Nle]ST[1Nal]S[Aib]RKK([PEG2″-PEG2″-PEG2″-γGlu-γGlu-γGlu-Stearoyl])-NH2 [peptide of SEQ ID NO: 79]
0.09 | 76 | Ac-LEGREKVRAK(Ac)I[Aib][Aib]EG[Nle]ST[1Nal]S[Aib]RKK(Ac)K([PEG2′-PEG2′-PEG2′-γGlu-γGlu-γGlu-Stearoyl])-NH2 [peptide of SEQ ID NO: 84]
0.07 | 89 | Ac-LEGREKVRAK(Ac)I[Aib][Aib]EG[Nle]STWS[Aib]RKK(Ac)K([PEG2′-PEG2′-PEG2′-PEG2′-γGlu-γGlu-γGlu-Stearoyl])-NH2 [peptide of SEQ ID NO: 90]
1.63 | 71 | Ac-LEGREKVRAK(Ac)I[Aib][Aib]EG[Nle]ST[1Nal]S[Aib]RK(Ac)LK([PEG2′-PEG2′-PEG2′-γGlu-γGlu-γGlu-Stearoyl])-NH2 [peptide of SEQ ID NO: 87]
2.94 | 92 | Ac-LEGREKVRLQI[Aib][Aib]EG[Nle]STWT[Aib]RKKK([PEG2″-PEG2″-PEG2″-γGlu-γGlu-γGlu-Stearoyl])-NH2 [peptide of SEQ ID NO: 77]
2.74 | 90 | Ac-LEGREKVRAK(Ac)I[Aib][Aib]EG[Nle]STWS[Aib]RKK(Ac)K([PEG2DGA-γGlu-γGlu-γGlu-Stearoyl])-NH2 [peptide of SEQ ID NO: 94]
0.85 | 92 | Ac-LEGREKVRAK(Ac)I[Aib][Aib]EG[Nle]STWS[Aib]RKK([PEG2′-PEG2′-PEG2′-γGlu-γGlu-γGlu-Stearoyl])-NH2 [peptide of SEQ ID NO: 83]
1.77 | 89 | Ac-LEGREKVRAK(Ac)I[Aib][Aib]EG[Nle]STWS[Aib]RKK(Ac)K([PEG2DGA-PEG2DGA-PEG2DGA-γGlu-γGlu-γGlu-Stearoyl])-NH2 [peptide of SEQ ID NO: 96]
18.9 | 96 | Ac-LEGREKVRAQI[Aib][Aib]EG[Nle]STWS[Aib]RK[PEG2″]K([γGlu-γGlu-γGlu-Palmitoyl])-NH2 [peptide of SEQ ID NO: 10]
0.8 | 89 | Ac-LEGREKVRAQI[Aib][Aib]EG[Nle]STWT[Aib]RKKK([PEG2″-PEG2″-PEG2″-γGlu-γGlu-γGlu-Stearoyl])-NH2 [peptide of SEQ ID NO: 76]
1.03 | 87 | Ac-LEGREKVRAK(Ac)I[Aib][Aib]EG[Nle]STWS[Aib]RKK(Ac)K([PEG2DGA-PEG2DGA-γGlu-γGlu-γGlu-Stearoyl])-NH2 [peptide of SEQ ID NO: 95]
– | 88 | Ac-LEGREKVRAQI[Aib][Aib]EG[Nle]STWS[Aib]RKKK([PEG2″-PEG2″-PEG2″-γGlu-γGlu-γGlu-Stearoyl])-NH2 [peptide of SEQ ID NO: 75]
11.8 | 95 | Ac-LEGREKVRAQI[Aib][Aib]EG[Nle]STWS[Aib]RKK([γGlu-γGlu-γGlu-Stearoyl])-NH2 (SMILES CCCCCCCCCCCCCCCCCC(=O)N[C@@H](CCC(=O)N[C@@H](CCC(=O)N[C@@H](CCC(=O)NCCCC[C@H](NC(=O)[C@H](CCCCN)NC(=O)[C@H](CCCNC(=N)N)NC(=O)C(C)(C)NC(=O)[C@H](CO)NC(=O)[C@H](Cc1c[nH]c2ccccc12)NC(=O)[C@@H](NC(=O)[C@H](CO)NC(=O)[C@H](CCCC)NC(=O)CNC(=O)[C@H](CCC(=O)O)NC(=O)C(C)(C)NC(=O)C(C)(C)NC(=O)[C@@H](NC(=O)[C@H](CCC(N)=O)NC(=O)[C@H](C)NC(=O)[C@H](CCCNC(=N)N)NC(=O)[C@@H](NC(=O)[C@H](CCCCN)NC(=O)[C@H](CCC(=O)O)NC(=O)[C@H](CCCNC(=N)N)NC(=O)CNC(=O)[C@H](CCC(=O)O)NC(=O)[C@H](CC(C)C)NC(C)=O)C(C)C)[C@@H](C)CC)[C@@H](C)O)C(N)=O)C(=O)O)C(=O)O)C(=O)O) [peptide of SEQ ID NO: 9]
0.22 | 84 | Ac-LEGREKVRAK(Ac)I[Aib][Aib]EG[Nle]STWS[Aib]RKK(Ac)K([PEG2′-PEG2′-PEG2′-γGlu-γGlu-γGlu-Stearoyl])-NH2 [peptide of SEQ ID NO: 81]
0.01 | 88 | Ac-LEGREKVRAK(Ac)I[Aib][Aib]EG[Nle]STWS[Aib]RKKK([PEG2′-PEG2′-PEG2′-PEG2′-γGlu-γGlu-γGlu-Stearoyl])-NH2 [peptide of SEQ ID NO: 91]
1.04 | 73 | Ac-LEGREKVRAK(Ac)I[Aib][Aib]EG[Nle]STYS[Aib]RKK(Ac)K([PEG2″-PEG2″-PEG2″-γGlu-γGlu-γGlu-Stearoyl])-NH2 [peptide of SEQ ID NO: 78]
0.26 | 82 | Ac-LEGREKVRAQI[Aib][Aib]EG[Nle]STWS[Aib]RKKK([PEG2′-PEG2′-PEG2′-PEG2′-γGlu-γGlu-γGlu-Stearoyl])-NH2 [peptide of SEQ ID NO: 92]
26.7 | 98 | Ac-LEGREKVRAQI[Aib][Aib]EG[Nle]STWS[Aib]RKK([γGlu-γGlu-γGlu-Palmitoyl])-NH2 (SMILES CCCCCCCCCCCCCCCC(=O)N[C@@H](CCC(=O)N[C@@H](CCC(=O)N[C@@H](CCC(=O)NCCCC[C@H](NC(=O)[C@H](CCCCN)NC(=O)[C@H](CCCNC(=N)N)NC(=O)C(C)(C)NC(=O)[C@H](CO)NC(=O)[C@H](Cc1c[nH]c2ccccc12)NC(=O)[C@@H](NC(=O)[C@H](CO)NC(=O)[C@H](CCCC)NC(=O)CNC(=O)[C@H](CCC(=O)O)NC(=O)C(C)(C)NC(=O)C(C)(C)NC(=O)[C@@H](NC(=O)[C@H](CCC(N)=O)NC(=O)[C@H](C)NC(=O)[C@H](CCCNC(=N)N)NC(=O)[C@@H](NC(=O)[C@H](CCCCN)NC(=O)[C@H](CCC(=O)O)NC(=O)[C@H](CCCNC(=N)N)NC(=O)CNC(=O)[C@H](CCC(=O)O)NC(=O)[C@H](CC(C)C)NC(C)=O)C(C)C)[C@@H](C)CC)[C@@H](C)O)C(N)=O)C(=O)O)C(=O)O)C(=O)O) [peptide of SEQ ID NO: 8]
0.14 | 87 | Ac-LEGREKVRAQI[Aib][Aib]EG[Nle]STWS[Aib]RKKK([PEG2′-PEG2′-PEG2′-PEG2′-PEG2′-γGlu-γGlu-γGlu-Stearoyl])-NH2 [peptide of SEQ ID NO: 93]

Reference: patent US20190233493A1 (Sanofi, published 2019)
